Assay results published in the supplement of paper PMC12764529.
± gives the half width of the 95% confidence interval.

Legend:
[1] = folding stability dG unfold from trypsin proteolysis; higher = more stable
How it was run: (§1)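 Bayesian fitting of sequencing counts gave K50 for each design. Unfolding free energy followed by setting this against a sequence-predicted unfolded-state K50 and a shared folded-state K50, either per protease or with trypsin and chymotrypsin combined. The designs, under 80 residues and lacking cysteine, were digested in a PA-tagged cDNA display format at 11 threefold-diluted protease concentrations and without protease, and only those with AlphaFold2 dimer inter-PAE above 15 were kept.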

[2] = folding stability dG unfold from chymotrypsin proteolysis; higher = more stable
How it was run: as §1

[3] = folding stability dG unfold (combined trypsin and chymotrypsin); higher = more stable
How it was run: as §1

| Sequence | folding stability dG unfold [1] | folding stability dG unfold [2] | folding stability dG unfold [3] |
| --- | --- | --- | --- |
| SAGGSAGGKKLYIVKIKIKNENGEEIEITLVFETEEQLKEALESLPIKNVKIEDVEIIPLEELKSAGGSAGG [r6_296_TrROS_Hall] | 1.88 ± 0.051 kcal/mol | 3.39 ± 0.098 kcal/mol | 3 ± 0.063 kcal/mol |
| SAGGSAGGKKYEVVSTIKDPATGETITVIKKDGKLIITITNKNGETKTIEITVKPGETITITAPSAGGSAGG [r6_379_TrROS_Hall] | 1.93 ± 0.077 kcal/mol | 1.57 ± 0.026 kcal/mol | 1.74 ± 0.057 kcal/mol |
| SAGGSAGGKLKIEITLEKVKNPETKEYYYRLRVTIYNENGKKIKEIEVVAKSKEEALEALKKLLSAGGSAGG [r6_974_TrROS_Hall] | 4.98 ± 0.22 kcal/mol | 5.24 ± 0.068 kcal/mol | 5.2 ± 0.13 kcal/mol |
| SAGGSAGGKLKVRIEIYRKDPKTNKWTKVKTIEIEIEAESEEELLAAAKALAPPGYEVKVELLPSAGGSAGG [r6_623_TrROS_Hall] | 4.26 ± 0.24 kcal/mol | 5.23 ± 0.21 kcal/mol | 5.15 ± 0.34 kcal/mol |
| SAGGSAGGKLVIGVFIPGLTPEQAEALVKLLEALGYPKENVTVVVFNVPALPPPGLEELLTKNGSAGGSAGG [r6_243_TrMRF] | 1.77 ± 0.071 kcal/mol | 2.75 ± 0.042 kcal/mol | 2.45 ± 0.16 kcal/mol |
| SAGGSAGGKLVVLLVRRPDGSLALRVTDAENPAEALEAARRNGMEALPLEVDDLEEFLEAIGLGSAGGSAGG [r6_495_TrMRF] | 0.875 ± 0.076 kcal/mol | 2.65 ± 0.09 kcal/mol | 2.17 ± 0.13 kcal/mol |
| SAGGSAGGKNNETRRDPNNGNTYTRTGGKWEMEPVPPPIEIVPWPIWDPNGQDLELMWRVSINLSAGGSAGG [r6_313_TrROS] | 1.06 ± 0.2 kcal/mol | 0.497 ± 0.49 kcal/mol | 0.838 ± 0.33 kcal/mol |
| SAGGSAGGKPPKFKVEVFIFPESNSVLVKIELPNSTLPFFIDKNGKIKGIKIIGDKVFNVSEGLSAGGSAGG [r6_241_TrMRF] | 1.42 ± 0.12 kcal/mol | 2.17 ± 0.097 kcal/mol | 1.96 ± 0.17 kcal/mol |
| SAGGSAGGKPPKPPKKVTITVTITFTLEDGKTVTVTAKITFLPDGTIKIEITYPDGSKLTLTFPSAGGSAGG [r6_109_TrROS_Hall] | 3.75 ± 0.35 kcal/mol | 4.81 ± 0.18 kcal/mol | 4.59 ± 0.23 kcal/mol |
| SAGGSAGGKTLELEVEALDPITGEPYKVKIIYDPETGTATILVTHPNGKKSLFTVPAGEALKLLSAGGSAGG [r6_219_TrMRF] | 2.63 ± 0.19 kcal/mol | 3.456 ± 0.033 kcal/mol | 3.28 ± 0.13 kcal/mol |
| SAGGSAGGKTLTIKLKDSTVTIELPSSISSISRIEVHSDGSLTLYHSSTGSTITLPIPPKIDNPSAGGSAGG [r6_369_TrMRF] | 1.74 ± 0.058 kcal/mol | 2.06 ± 0.035 kcal/mol | 1.96 ± 0.051 kcal/mol |
| SAGGSAGGKVRINWNPNGWIRIKIETPGKKQEIPIPMDSPEDAKDFVDKLAKQFKVKIEEIEPYSAGGSAGG [r6_254_TrROS] | -0.179 ± 0.47 kcal/mol | 0.166 ± 0.3 kcal/mol | 0.194 ± 0.26 kcal/mol |
| SAGGSAGGLEDVIRALGLELLEREKIGEKIRILARDPNADRLYEVTVTLEGPPEIEITPLPPGLSAGGSAGG [r6_195_JUSTAS] | 2.79 ± 0.052 kcal/mol | 3.225 ± 0.022 kcal/mol | 3.04 ± 0.037 kcal/mol |
| SAGGSAGGLIEEILKEIGLSPEEVVKVEVEPIEEKENSLTVRVTAEFLLPDGSKKKIEAEFEIGSAGGSAGG [r6_774_TrMRF] | 1.1 ± 0.06 kcal/mol | 1.13 ± 0.082 kcal/mol | 1.21 ± 0.11 kcal/mol |
| SAGGSAGGLTLRLELEIRLEDGLTLRVRVEYDLETNEVKIEIELLPPAPPVEEEPEVLVVEEEESAGGSAGG [r6_926_TrROS_Hall] | 3 ± 0.29 kcal/mol | 4.28 ± 0.29 kcal/mol | 3.78 ± 0.41 kcal/mol |
| SAGGSAGGLYIVRIEIYHPENGKEWTIMIPVPSEEEAKEEAEELAKTFAKKNGYKIEVEVFPLPSAGGSAGG [r6_787_TrROS] | 1.53 ± 0.033 kcal/mol | 2.5 ± 0.067 kcal/mol | 2.11 ± 0.1 kcal/mol |
| SAGGSAGGMAKVKILKIKPVNTGEDGSKSVEIEVEFENPNPEVAKAFVEEIAKKLGFEEVEDTTSAGGSAGG [r6_317_TrMRF] | 0.43 ± 0.079 kcal/mol | 0.687 ± 0.15 kcal/mol | 0.406 ± 0.28 kcal/mol |
| SAGGSAGGMDAEELAERIANHFQEHFPDMPIKVEVDPDHGWAKIEMRNPNNPGQKHEFEIPIDKSAGGSAGG [r6_478_TrROS] | 0.311 ± 0.093 kcal/mol | 1.29 ± 0.031 kcal/mol | 0.912 ± 0.1 kcal/mol |

| Sequence | folding stability dG unfold [1] | folding stability dG unfold [2] | folding stability dG unfold [3] |
| --- | --- | --- | --- |
| SAGGSAGGMEEVLALLKELGLEVKSVDIKSPDKVIVYIKPKDEKKLEELKKAVPKSLVDEIGLESAGGSAGG [r6_84_JUSTAS] | -0.0936 ± 0.083 kcal/mol | 0.455 ± 0.15 kcal/mol | 0.275 ± 0.13 kcal/mol |
| SAGGSAGGMEIRVERDPESDLLVAELKIDGHDAIAVFDPNRPGHIEIGTTNEIPIEEIIDALLSSAGGSAGG [r6_195_TrMRF] | 0.683 ± 0.038 kcal/mol | -0.08 ± 0.32 kcal/mol | 0.152 ± 0.37 kcal/mol |
| SAGGSAGGMEVVERVVKLPDGTELRITIERDPEKDTAKVTITDPTTSETRTLDVTSEEEALELLSAGGSAGG [r6_465_JUSTAS] | 2.31 ± 0.068 kcal/mol | 1.56 ± 0.032 kcal/mol | 1.93 ± 0.037 kcal/mol |
| SAGGSAGGMIEVYEEGDKLTVLNPGPDPNKKVTVTLDNGSATSSRIPEGTYVTTATVAPDATLKSAGGSAGG [r6_70_JUSTAS] | 0.14 ± 0.028 kcal/mol | -1.06 ± 0.36 kcal/mol | -0.169 ± 0.099 kcal/mol |
| SAGGSAGGMIIQEVEEFKDKSEEEVKKKMLEELKKKYPKSYKVKITVTKNPSGKYTVTVTITPNSAGGSAGG [r6_964_JUSTAS] | 2.19 ± 0.047 kcal/mol | 2.65 ± 0.059 kcal/mol | 2.51 ± 0.071 kcal/mol |
| SAGGSAGGMIIRVEFKNGEVKTFVVKSPEEAKKKLAESLGLKEDEIPLDEIKSVEILNLDEALSSAGGSAGG [r6_586_TrMRF] | 3.35 ± 0.1 kcal/mol | 4.1 ± 0.073 kcal/mol | 3.91 ± 0.073 kcal/mol |
| SAGGSAGGMIKIKLKNGEVLYIDPKKPVLYFNKEKKIIPVKKDKIEKALKELEKKGFKIEKIDPSAGGSAGG [r6_337_TrMRF] | -0.249 ± 0.28 kcal/mol | -0.0347 ± 0.31 kcal/mol | 0.0657 ± 0.15 kcal/mol |
| SAGGSAGGMIPLEEIEIEEITEETLPSNEKVITVKVKFPDGTKTLTFEPNEGEEKILEKIKELTSAGGSAGG [r6_233_JUSTAS] | 0.544 ± 0.042 kcal/mol | 0.727 ± 0.034 kcal/mol | 0.734 ± 0.082 kcal/mol |
| SAGGSAGGMIRFDTPEEVEAALKALRAKLPPGATLVIEIEVDGKLVRVEFKDGKITKVEVRELPSAGGSAGG [r6_288_TrROS_Hall] | 3.02 ± 0.16 kcal/mol | 3.67 ± 0.12 kcal/mol | 3.57 ± 0.2 kcal/mol |
| SAGGSAGGMITVNSEEEAKELEAELKEKGYKAEVTPKTGKNGPYYLITLTPIPKKKKSTKKSKLSAGGSAGG [r6_182_JUSTAS] | 1.16 ± 0.095 kcal/mol | 1.03 ± 0.11 kcal/mol | 1.13 ± 0.21 kcal/mol |
| SAGGSAGGMKAVITQPPDGTATVEIYDETTGKTTTKTIPADQPEEIEALIAGKVDEVTTTPAPASAGGSAGG [r6_640_JUSTAS] | 2.09 ± 0.12 kcal/mol | 1.35 ± 0.1 kcal/mol | 1.76 ± 0.095 kcal/mol |
| SAGGSAGGMKELAEKLGWEYEEKEEKLPSGKKILIATFTSPDGSKVIITFDPSTNKIISEEVFESAGGSAGG [r6_982_JUSTAS] | 4.28 ± 0.4 kcal/mol | 3.71 ± 0.23 kcal/mol | 4.03 ± 0.25 kcal/mol |
| SAGGSAGGMKIEIIEEKDGYIVLRVSPEDLEALEKLGFEIVSVEEVEGELYIVIKVSPEALKALSAGGSAGG [r6_108_TrROS_Hall] | 3.58 ± 0.095 kcal/mol | 3.5 ± 0.037 kcal/mol | 3.55 ± 0.066 kcal/mol |
| SAGGSAGGMKIRIEIEMTPEEVEALREELEKAGYRVEVERREDGRVRVTIEIELPPPPPPPEEESAGGSAGG [r6_8_TrROS_Hall] | 3.08 ± 0.24 kcal/mol | 3.75 ± 0.13 kcal/mol | 3.46 ± 0.2 kcal/mol |
| SAGGSAGGMKITTPDGKEITFPPKDETVTLTITVKLEDGTTVTIEIKFNKNGEIVEIKISIEKKSAGGSAGG [r6_530_TrROS_Hall] | 1.52 ± 0.07 kcal/mol | 2.43 ± 0.061 kcal/mol | 1.99 ± 0.17 kcal/mol |
| SAGGSAGGMKITVEEVKVEKKEDGSYRVRIRLKNGEVLELEFESLEEALAAAKKLGAEITEIEPSAGGSAGG [r6_84_TrROS_Hall] | 3.12 ± 0.058 kcal/mol | 3.54 ± 0.038 kcal/mol | 3.35 ± 0.04 kcal/mol |
| SAGGSAGGMKIVVEEVDEEKGYVRIRIEDPETKEEKEIVVKVKTPEEAEALAKKLAEAGYEVETSAGGSAGG [r6_796_TrROS_Hall] | 1.27 ± 0.045 kcal/mol | 1.79 ± 0.028 kcal/mol | 1.61 ± 0.087 kcal/mol |
| SAGGSAGGMKPGEEKEITLPDGSKIKVRIKDGKLEIEFENGERKEIEIKPGEKIEIKLPKGVKPSAGGSAGG [r6_970_TrROS_Hall] | 1.4 ± 0.076 kcal/mol | 2.05 ± 0.085 kcal/mol | 1.81 ± 0.083 kcal/mol |
